Experiment [1] concerns the target KRAS4B GTPase domain (residues 1-173, C118S), un-phosphorylated (human) (UniProt P01116).
Experiment [2] deals with Src-phosphorylated 15N-KRAS (residues 1-173, C118S), not separated (human) (UniProt P01116).
Experiment [3] addresses KRAS4B GTPase domain (residues 1-173, C118S), un-phosphorylated (human) (UniProt P01116). This is another data set of the same source.
Experiment [4] concerns the target Src-phosphorylated 15N-KRAS (residues 1-173, C118S), not separated (human) (UniProt P01116). This is another data set of the same source.

As to “GAP domain of human RASA1 (residues 715-1074) (domain or fragment)”, in experiment [1], the acceleration of the rate of GTP hydrolysis of KRAS by the RASA1 GAP domain at a 1:3000 molar ratio, real-time NMR is over 300%. Moreover, in experiment [2], the increase of the rate of GTP hydrolysis of pKRAS by the RASA1 GAP domain at a 1:3000 molar ratio, real-time NMR was under 20%.

Take “catalytic domain of Son of Sevenless 1 (SOS^cat, residues 564-1049) (from UniProt Q07889 564-1049) (domain or fragment)”: the fold acceleration of nucleotide exchange (GDP to GTPγS) of KRAS by SOS^cat at a ratio of 1:600, real-time NMR in experiment [3] was 17 fold. In experiment [4], the fold acceleration of nucleotide exchange (GDP to GTPγS) of pKRAS by SOS^cat at a ratio of 1:600, real-time NMR is under 3 fold.
